In US20240218074A1:
pEC50: −log10 of the molar value.

Assays:
[1] = molecular target: human CD73 expressed on cells (human PBMC CD8+ T cells and CD19+ B cells; endogenous CD73 of MDA-MB-231 and U87-MG cells) (human) (UniProt P21589); assay: cell-based or functional assay
[2] = molecular target: human NT5E-Biotin (NT5E is GenbankID: NP_002517.1, position: 1-552) (human) (UniProt P21589); assay: ELISA on streptavidin-captured human NT5E-Biotin; antibody 1:81 dilution of 0.333 ug/mL; replicate 1
[3] = molecular target: human NT5E-Biotin (NT5E is GenbankID: NP_002517.1, position: 1-552) (human) (UniProt P21589); assay: ELISA on streptavidin-captured human NT5E-Biotin; antibody 1:729 dilution of 0.333 ug/mL; replicate 1
[4] = molecular target: human NT5E-Biotin (NT5E is GenbankID: NP_002517.1, position: 1-552) (human) (UniProt P21589); assay: ELISA on streptavidin-captured human NT5E-Biotin; antibody 1:9 dilution of 0.333 ug/mL; replicate 2
[5] = molecular target: human NT5E-Biotin (NT5E is GenbankID: NP_002517.1, position: 1-552) (human) (UniProt P21589); assay: ELISA on streptavidin-captured human NT5E-Biotin; antibody 1:3 dilution of 0.333 ug/mL; replicate 2
[6] = molecular target: human NT5E-Biotin (NT5E is GenbankID: NP_002517.1, position: 1-552) (human) (UniProt P21589); assay: ELISA on streptavidin-captured human NT5E-Biotin; antibody 1:243 dilution of 0.333 ug/mL; replicate 2
[7] = molecular target: human NT5E-Biotin (NT5E is GenbankID: NP_002517.1, position: 1-552) (human) (UniProt P21589); assay: ELISA on streptavidin-captured human NT5E-Biotin; antibody 0 (blank well); replicate 2
[8] = molecular target: human NT5E-Biotin (NT5E is GenbankID: NP_002517.1, position: 1-552) (human) (UniProt P21589); assay: ELISA on streptavidin-captured human NT5E-Biotin; antibody 0 (blank well); replicate 1
[9] = molecular target: human NT5E-Biotin (NT5E is GenbankID: NP_002517.1, position: 1-552) (human) (UniProt P21589); assay: ELISA on streptavidin-captured human NT5E-Biotin; antibody 0.333 ug/mL; replicate 2
[10] = molecular target: human NT5E-Biotin (NT5E is GenbankID: NP_002517.1, position: 1-552) (human) (UniProt P21589); assay: ELISA on streptavidin-captured human NT5E-Biotin; antibody 1:729 dilution of 0.333 ug/mL; replicate 2
[11] = molecular target: human NT5E-Biotin (NT5E is GenbankID: NP_002517.1, position: 1-552) (human) (UniProt P21589); assay: ELISA on streptavidin-captured human NT5E-Biotin; antibody 1:27 dilution of 0.333 ug/mL; replicate 2
[12] = molecular target: human NT5E-Biotin (NT5E is GenbankID: NP_002517.1, position: 1-552) (human) (UniProt P21589); assay: ELISA on streptavidin-captured human NT5E-Biotin; antibody 1:81 dilution of 0.333 ug/mL; replicate 2
[13] = molecular target: human NT5E-Biotin (NT5E is GenbankID: NP_002517.1, position: 1-552) (human) (UniProt P21589); assay: ELISA on streptavidin-captured human NT5E-Biotin; antibody 1:243 dilution of 0.333 ug/mL; replicate 1
[14] = molecular target: human NT5E-Biotin (NT5E is GenbankID: NP_002517.1, position: 1-552) (human) (UniProt P21589); assay: ELISA on streptavidin-captured human NT5E-Biotin; antibody 1:9 dilution of 0.333 ug/mL; replicate 1
[15] = molecular target: human NT5E-Biotin (NT5E is GenbankID: NP_002517.1, position: 1-552) (human) (UniProt P21589); assay: ELISA on streptavidin-captured human NT5E-Biotin; antibody 1:3 dilution of 0.333 ug/mL; replicate 1
[16] = molecular target: human NT5E-Biotin (NT5E is GenbankID: NP_002517.1, position: 1-552) (human) (UniProt P21589); assay: ELISA on streptavidin-captured human NT5E-Biotin; HRP goat anti-human IgG
[17] = molecular target: human NT5E-Biotin (NT5E is GenbankID: NP_002517.1, position: 1-552) (human) (UniProt P21589); assay: ELISA on streptavidin-captured human NT5E-Biotin; antibody 1:27 dilution of 0.333 ug/mL; replicate 1
[18] = molecular target: human NT5E-Biotin (NT5E is GenbankID: NP_002517.1, position: 1-552) (human) (UniProt P21589); assay: ELISA on streptavidin-captured human NT5E-Biotin; antibody 0.333 ug/mL; replicate 1

human NT5E-Biotin (NT5E is GenbankID: NP_002517.1, position: 1-552) (human), sequence (P21589 27-552 limits assumed, form in doubt): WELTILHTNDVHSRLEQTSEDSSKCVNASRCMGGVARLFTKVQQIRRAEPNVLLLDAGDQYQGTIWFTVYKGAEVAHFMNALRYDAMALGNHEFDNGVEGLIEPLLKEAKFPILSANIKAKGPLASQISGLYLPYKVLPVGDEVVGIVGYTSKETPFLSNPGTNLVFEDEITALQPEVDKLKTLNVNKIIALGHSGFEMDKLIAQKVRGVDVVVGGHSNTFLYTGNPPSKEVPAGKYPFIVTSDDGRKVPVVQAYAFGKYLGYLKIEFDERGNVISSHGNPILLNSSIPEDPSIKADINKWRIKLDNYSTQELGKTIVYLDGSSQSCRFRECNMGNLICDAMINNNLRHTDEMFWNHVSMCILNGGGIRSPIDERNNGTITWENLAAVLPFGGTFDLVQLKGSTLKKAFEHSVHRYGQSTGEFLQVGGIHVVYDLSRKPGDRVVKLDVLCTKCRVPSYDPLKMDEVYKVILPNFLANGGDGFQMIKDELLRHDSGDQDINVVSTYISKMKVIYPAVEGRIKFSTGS
human CD73 expressed on cells (human PBMC CD8+ T cells and CD19+ B cells; endogenous CD73 of MDA-MB-231 and U87-MG cells) (human), sequence (P21589 27-549): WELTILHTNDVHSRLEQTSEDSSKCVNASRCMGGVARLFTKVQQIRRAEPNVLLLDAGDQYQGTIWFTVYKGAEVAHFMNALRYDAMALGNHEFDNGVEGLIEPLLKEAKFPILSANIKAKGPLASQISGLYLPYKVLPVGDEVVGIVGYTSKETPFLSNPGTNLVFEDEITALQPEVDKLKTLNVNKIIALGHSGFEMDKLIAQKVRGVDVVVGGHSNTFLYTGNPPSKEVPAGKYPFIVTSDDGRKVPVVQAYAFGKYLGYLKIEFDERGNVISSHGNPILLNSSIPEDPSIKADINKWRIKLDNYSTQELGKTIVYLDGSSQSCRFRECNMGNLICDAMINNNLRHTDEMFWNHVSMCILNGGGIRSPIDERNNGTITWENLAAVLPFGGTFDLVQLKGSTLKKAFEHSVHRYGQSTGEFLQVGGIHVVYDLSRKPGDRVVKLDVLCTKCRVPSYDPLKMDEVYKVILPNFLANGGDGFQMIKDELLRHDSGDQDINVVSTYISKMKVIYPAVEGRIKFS

## positive control antibody MEDI9447 (Oleclumab)
[1]
  Inhibition rate EC50 (nM): enzyme activity of CD73 expressed by human PBMC membrane (AMP/ATP CellTiter-Glo read-out): 0.0064 nM
  internalization rate of CD73 in MDA-MB-231 cells after 22 hours (FACS): 50.5%
  internalization rate of CD73 in U87-MG cells after 22 hours (FACS): 73.7%
[2]
  OD (450 nm): 1.06 OD450
[3]
  OD (450 nm): 0.272 OD450
[4]
  OD (450 nm): 2.28 OD450
[5]
  OD (450 nm): 2.6 OD450
[6]
  OD (450 nm): 0.528 OD450
[7]
  OD (450 nm): 0.116 OD450
[8]
  OD (450 nm): 0.121 OD450
[9]
  OD (450 nm): 2.53 OD450
[10]
  OD (450 nm): 0.275 OD450
[11]
  OD (450 nm): 1.74 OD450
[12]
  OD (450 nm): 1.03 OD450
[13]
  OD (450 nm): 0.536 OD450
[14]
  OD (450 nm): 2.27 OD450
[15]
  OD (450 nm): 2.57 OD450
[16]
  pEC50: 10.32
[17]
  OD (450 nm): 1.77 OD450
[18]
  OD (450 nm): 2.55 OD450
